Measured values published in article PMC11609597, “Characterization of two bacterial tyrosinases from the halophilic bacterium Hahella sp. CCB MM4 relevant for phenolic compounds oxidation in wetlands” (FEBS Open Bio, 2024).

Key:
cleaved-HcTyr1 = target: T1, cleaved-HcTyr1 (Hahella sp. CCB-MM4, UniProt A0A261GRE4); assay: MBTH o-quinone trapping, absorbance at […] nm, Michaelis-Menten fit; type: biochemical; conditions: 50 mM potassium phosphate pH 7.0, 25 °C, 5 mM MBTH, 2% N,N'-dimethylformamide, Cu(II) 2:1; LID self-cleaved form; diphenolase
T1 construct: gene BTA51_09820; TYR domain after self-cleavage of the C-terminal LID domain during storage (over 2 months, 4 °C); used without further purification; expressed in E. coli BL21(DE3) with C-terminal His tag; Cu(II) added 2:1

purified protein [1] = substrate: N[C@@H](Cc1ccc(O)c(O)c1)C(=O)O; assay: purified protein; type: biochemical, Hahella sp. CCB-MM4; conditions: 5 mM MBTH, 2% N,N'-dimethylformamide
purified protein [2] = substrate: N[C@@H](Cc1ccc(O)cc1)C(=O)O; assay: purified protein; type: biochemical, Hahella sp. CCB-MM4; conditions: 5 mM MBTH, 2% N,N'-dimethylformamide
[3] = 50 mM sodium citrate pH 5.5, 25 °C, Cu(II) 2:1, diphenolase
[4] = 50 mM sodium citrate pH 5.5, 25 °C, Cu(II) 2:1, monophenolase
[5] = 50 mM potassium phosphate pH 7.0, 25 °C, Cu(II) 2:1, latent form, diphenolase
[6] = 50 mM potassium phosphate pH 7.0, 25 °C, Cu(II) 2:1, latent form, monophenolase

## N[C@@H](Cc1ccc(O)c(O)c1)C(=O)O [L-DOPA]
cleaved-HcTyr1
  Km: 347 ± 7 µM

B1: HcTyr2 (Hahella sp. CCB-MM4) (protein)
chain: MGDSSELNVRRSVRDLQAEYDRGNRKPLEDLIRAWKGIQELPPDDKRSFFILGGYHGEPFDYRNAVDALPPDDIYTYWGGWCNHGNVLFPTWHRIYILKLEEALQSIVPGVTLPFWDETSEETVKKGIPDVLTREYFELDGENIKNPLYSYTLPLSLSDNVPGDNKAYEKPAGYETVRYPLSGLVGTPEARAATAKHNAKYPNPIENTQLLNKNIIAWLHGSGKDEEGPTTTDPNPKGRGVKWMYEKCLSAPNYTVFSNTTSAGQWNLDHPAKSVVALEQPHNDVHLAVGGFDIPGQGESGQVADANGDMGENNTAALDPIFFFHHCNVDRMFWLWQKQNGFINKLEVITGYYGTNSSDSQGPTPGIPPGTPLDLNTPLNPFIKDEFGNPFTSMDCINIEEQLGYTYGPGSLDEVPKPEPITGGSTKKLTVRGINRGLFDGSFVIRAYASVPDAQGQLTEYYLGDHAVLSRRNVVKCANCLTHLEVIAHFPLDTLSADLVDKAEYWITIQHRGHSKRMKVDKDTGQSEKALLAQRAELPEKLKYSISVTD
notes: full length 550 aa with LID domain attached, C-terminal His tag (pET22b), E. coli BL21(DE3), about 61 kDa; Cu(II) added 2:1
Purified protein [1]; [3]
  Km: 196 ± 6 µM
  kcat: 9.94 ± 0.0 s⁻¹
Purified protein [2]; [4]
  Km: 160 ± 5 µM
  kcat: 6.12 s⁻¹

B2: HcTyr1 (latent-HcTyr1) (Hahella sp. CCB-MM4) (protein)
chain: MKTRQNVYELKDDTLSWYSRAVEEMKSRDINDPTSWWYQGAIHGYATYPSALTYWHDATGYPPSQQTVNSGFWNRCQHGTWYFLPWHRMYLFYFEEIVAKAIRDMGGPADWTLPYWNYCEAYNTSASPSNQQQALQIPPEFGSSQGPNADFASLWIKNRRNYVLNKNNVNPWPAMNEAEFTNSGGDISFGGGVTGFAHSGGQTGQLESLPHNVVHTDINGAMGNPDTAALDPIFWLHHANIDRLWQVWLAQAGRSNPVVNAWKDFRFKFHDANGQPVEIAVKDVETTQLLGYVYTPAFPLSSTTPARRSVPAMDVVGATSASFSVGDHMAPLDLTMVPQPARGARLLAARGGDEKRTILRISNVKGKGATSPIDLFITNRDNEEGNEENFVGCIGLFGLENASTPSVESDGSGLNFAIDISDTINKLRQRDDWDEDNIRVQLIPQSKQDSDVEINVGRVSLHSEID
notes: full length 466 aa with LID domain (latent), C-terminal His tag (pET22b), E. coli BL21(DE3), about 52 kDa, monomer; Cu(II) added 2:1
Purified protein [1]; [5]
  Km: 370 ± 5 µM
  kcat: 1.00 ± 0.0 s⁻¹
Purified protein [2]; [6]
  Km: 187 ± 35 µM
  kcat: 0.71 ± 0.03 s⁻¹
